These results are taken from article PMC7749410.

In test [1] the target is cc-del0 (cc-C99 18-99) (Saccharomyces cerevisiae | human). Description: native gel or EMSA. (Mobility shift assays separate free from complexed probe on a gel.)
The target of test [2] is cc-del0 G29C (Saccharomyces cerevisiae | human). Description: cross-linking.
Test [3] has as its target cc-del1 (cc-C99 19-99) (Saccharomyces cerevisiae | human). Description: native gel or EMSA.
Test [4] has as its target cc-del2 (cc-C99 20-99) (Saccharomyces cerevisiae | human). Description: native gel or EMSA.
For test [5], the target named is cc-del2 G29C (Saccharomyces cerevisiae | human). Nature of the test: cross-linking.
Test [6] addresses cc-del3 (cc-C99 21-99) (Saccharomyces cerevisiae | human). Description: native gel or EMSA.
Test [7] deals with cc-del3 G29C (Saccharomyces cerevisiae | human). Nature of the test: cross-linking.
The target of test [8] is cc-del4 (cc-C99 22-99) (Saccharomyces cerevisiae | human). Description: native gel or EMSA.
Test [9] addresses cc-del4 G37C (Saccharomyces cerevisiae | human). Nature of the test: cross-linking.
For test [10], the target named is cc-del5 (cc-C99 23-99) (Saccharomyces cerevisiae | human). Description: native gel or EMSA.
Test [11] addresses cc-del6 (cc-C99 24-99) (Saccharomyces cerevisiae | human). Nature of the test: native gel or EMSA.
Test [12] addresses cc-del6 G29C (Saccharomyces cerevisiae | human). Description: cross-linking.
The target in test [13] is cc-del7 (cc-C99 25-99) (Saccharomyces cerevisiae | human). Description: native gel or EMSA.
In test [14] the target is cc-del7 G29C (Saccharomyces cerevisiae | human). Description: cross-linking.
In test [15] the target is cc-del7 G37C (Saccharomyces cerevisiae | human). Description: cross-linking.
For test [16], the target named is cc-del8 (cc-C99 26-99) (Saccharomyces cerevisiae | human). Nature of the test: native gel or EMSA.
For test [17], the target named is cc-del9 (cc-C99 27-99) (Saccharomyces cerevisiae | human). Nature of the test: native gel or EMSA.
In test [18] the target is cc-del9 G29C (Saccharomyces cerevisiae | human). Nature of the test: cross-linking.

As a reminder, the stoichiometry N is a count of units in the complex or per binding partner.

cc-del0 (cc-C99 18-99) registered a stoichiometry N in [1] of 2.
The substance cc-del0 G29C returned a stoichiometry N in test [2] of 2.
Take cc-del1 (cc-C99 19-99): the stoichiometry N in test [3] turned out to be 2.
In test [4], cc-del2 (cc-C99 20-99) came in with a stoichiometry N of 2.
Substance cc-del2 G29C yielded a stoichiometry N in test [5] of 2.
cc-del3 (cc-C99 21-99) registered a stoichiometry N in test [6] of 2.
On to cc-del3 G29C, for which the stoichiometry N in test [7] is 2.
In the case of cc-del4 (cc-C99 22-99), the stoichiometry N in test [8] is 2.
In test [9], cc-del4 G37C came in with a stoichiometry N of 2.
Turning to cc-del5 (cc-C99 23-99), in test [10], the stoichiometry N worked out at 2.
In test [11], cc-del6 (cc-C99 24-99) yielded a stoichiometry N of 2.
In [12], cc-del6 G29C showed a stoichiometry N of 2.
Regarding cc-del7 (cc-C99 25-99), in [13], the stoichiometry N came out at 2.
Substance cc-del7 G29C returned a stoichiometry N in [14] of 2.
As for cc-del7 G37C, the stoichiometry N in test [15] is 2.
As for cc-del8 (cc-C99 26-99), in test [16], the stoichiometry N was found to be 2.
As to cc-del9 (cc-C99 27-99), the stoichiometry N in test [17] was 2.
Substance cc-del9 G29C had a stoichiometry N in test [18] of 2.
